Test results taken from patent US20250026797A1 (GOVERNMENT OF THE UNITED STATES OF AMERICA AS REPRESENTED …, published 2025).
No end group written: not given here. *: point of attachment. Biotin = O=C1N[C@H]2[C@H](CS[C@H]2CCCCC(=O)*)N1

T1: PGVVKSK(biotin) peptide (PGXVKSK(biotin), X = Val)
T1 construct: also called Val at P3
T1 peptide: PGVVKSK(Biotin)

T2: PGMVKSK(biotin) peptide (PGXVKSK(biotin), X = Met)
T2 construct: also called Met at P3
T2 peptide: PGMVKSK(Biotin)

T3: PGFVKSK(biotin) peptide (PGXVKSK(biotin), X = Phe)
T3 construct: also called Phe at P3
T3 peptide: PGFVKSK(Biotin)

T4: PSLVKSK(biotin) peptide (PXLVKSK(biotin), X = Ser)
T4 construct: also called Ser at P2
T4 peptide: PSLVKSK(Biotin)

T5: PGRVKSK(biotin) peptide (PGXVKSK(biotin), X = Arg)
T5 construct: also called Arg at P3
T5 peptide: PGRVKSK(Biotin)

T6: PGSVKSK(biotin) peptide (PGXVKSK(biotin), X = Ser)
T6 construct: also called Ser at P3
T6 peptide: PGSVKSK(Biotin)

T7: PVLVKSK(biotin) peptide (PXLVKSK(biotin), X = Val)
T7 construct: also called Val at P2
T7 peptide: PVLVKSK(Biotin)

T8: NH2-PGLVKSK(biotin)-COOH peptide (SMILES CC(C)C[C@H](NC(=O)CNC(=O)[C@@H]1CCCN1)C(=O)N[C@H](C(=O)N[C@@H](CCCCN)C(=O)N[C@@H](CO)C(=O)N[C@@H](CCCCNC(=O)CCCC[C@@H]1SC[C@@H]2NC(=O)N[C@@H]21)C(=O)O)C(C)C)
T8 construct: Immobilised on streptavidin biosensors in BLI; in solution in the yeast display sorts; also called Nt-Pro peptide; target peptide
T8 peptide: H-PGLVKSK(Biotin)-OH

T9: MGLVKSK(biotin) peptide (XGLVKSK(biotin), X = Met)
T9 construct: also called Nt-Met peptide
T9 peptide: MGLVKSK(Biotin)

T10: FGLVKSK(biotin) peptide (XGLVKSK(biotin), X = Phe)
T10 construct: also called Nt-Phe peptide
T10 peptide: FGLVKSK(Biotin)

T11: VGLVKSK(biotin) peptide (XGLVKSK(biotin), X = Val)
T11 construct: also called Nt-Val peptide
T11 peptide: VGLVKSK(Biotin)


Columns and labels:
[1] = target: T1, PGVVKSK(biotin) peptide …; experiment: BLI, biotinylated peptide on streptavidin biosensor
Method: (§1) The measurements were analyzed with instrument software Data Analysis HT (Version 12).
(§2) Previous works on GID4, as well as other N-degron proteins reported significant impact of the second position of the peptide (P2) on binding affinity. The impact of the P2 on the top variants were evaluated with BLI assay using PGLVKSK(biotin) and PXLVKSK(biotin) peptides, where X is Arg, Asp, Val, Phe, Ser, Met, or Pro. […] S283F variant and, especially, A252V variant retain higher level of BLI response compared to wild-type when Val or Ser is at P2. S283F variant retains 40% of signal with Ser at P2 and A252V variant retains >65% with Val and Ser. This retention of binding response with Val and Ser at P2, relative to Gly at P2, is maintained with the triple mutant the double mutants, with over 58% of signal retained for these variants when Ser is at P2. The A252V-S283F mutant and the triple mutant retained >55% of signal when Val is at P2.
(§3) Due to the depth of the binding pocket of GID4, the binding is impacted by the identity of residues in the target peptide beyond P2. […] Similar to evaluating the impact of P2, the impact of P3 was evaluated via BLI with PGLVKSK(biotin) peptide and PGXVKSK(biotin) peptides, where X is Arg, Asp, Val, Phe, Ser, Met, or Pro. […] Asp and Pro are particularly not favorable at P3, as almost no BLI signal was measured. The BLI response of variants with the rest of the peptides, however, increased.

[2] = target: T2, PGMVKSK(biotin) peptide …; experiment: as above
Method: as §1, §2, §3

[3] = target: T3, PGFVKSK(biotin) peptide …; experiment: as above
Method: as §1, §2, §3

[4] = target: T4, PSLVKSK(biotin) peptide …; experiment: as above
Method: as §1, §2, §3

[5] = target: T5, PGRVKSK(biotin) peptide …; experiment: as above
Method: as §1, §2, §3

[6] = target: T6, PGSVKSK(biotin) peptide …; experiment: as above
Method: as §1, §2, §3

[7] = target: T7, PVLVKSK(biotin) peptide …; experiment: as above
Method: as §1, §2, §3

[8] = target: T8, NH2-PGLVKSK(biotin)-COOH peptide; experiment: BLI, biotinylated peptide on streptavidin biosensor, 10 µmol/L protein
Method: (§4) High-throughput kinetic measurements were taken using Octet Red96e system with Octet Streptavidin (SA) Biosensors in 96-well format. The highest concentration of protein was prepared by mixing 25% of the total volume with 0.4% BSA in dialysis buffer (1×PBS) and completing subsequent dilutions with 0.1% BSA in dialysis buffer. The SA biosensors were hydrated for 10 min in the dialysis buffer with 0.1% BSA then loaded with NH₂-XXXVKSK(biotin)-COOH (where X are residues specified in the experiment and figures) by moving the sensors into wells with 10 μmol/L of the biotinylated peptide and incubating for 2 min. Unbound peptide was removed by incubating in the dialysis buffer with 0.1% BSA for 2 min in the next wells. The association of GID4 wild-type and variants were then measured by incubating the biosensors in wells with the proteins for 10 min and then dissociation measured by moving the sensors into new wells with dialysis buffer with 0.1% BSA for another 10 min. All wells contained 200 μL of specified solution. The measurements were analyzed with instrument software Data Analysis HT (Version 12).
(§5) The association and dissociation of the GID4 wild-type and the six variants to the PGLVKSK(biotin) peptide were evaluated using BLI. BLI is an optical technique that can measure interaction between protein in solution ad peptide immobilized on the biosensor tip. […] The S283F variant has an apparent faster dissociation rate compared to the other singe mutation variants. The apparent faster dissociation rate due to S283F mutation is also present in A252V-S283F mutant, when compared to the A252V-S253T mutant. […] The increase in the BLI response and shift in dissociation rate can be beneficial as an Nt-Pro recognizing protein; differences in off-rate can be used as method to distinguish different Nt-amino acids.

[9] = target: T9, MGLVKSK(biotin) peptide …; experiment: as above
Method: as §4, §5

[10] = target: T10, FGLVKSK(biotin) peptide …; experiment: as above
Method: as §4, §5

[11] = target: T11, VGLVKSK(biotin) peptide …; experiment: as above
Method: as §4, §5

Binder | % of steady-state BLI response relative to PGLVKSK(biotin) [1] | % of steady-state BLI response relative to PGLVKSK(biotin) [2] | % of steady-state BLI response relative to PGLVKSK(biotin) [3] | % of steady-state BLI signal retained relative to PGLVKSK(biotin) [4] | % of steady-state BLI response relative to PGLVKSK(biotin) [5] | % of binding response relative to PGLVKSK(biotin) [6] | % of steady-state BLI signal retained relative to PGLVKSK(biotin) [7] | fold steady-state BLI response against wild-type GID4 [8] | binding result [9] | binding result [10] | binding result [11] | % of steady-state BLI response relative to PGLVKSK(biotin) [6] | binding result [8] | binding result [1] | binding result [2] | binding result [3] | binding result [5] | binding result [7]
wild-type human GID4 fragment (residues 116-300), purified with N-terminal His-tag (other, Expressed in E. coli BL21(DE3), nickel-column purified; also called wild-type GID4; native GID4; not shown: N-terminal six-histidine tag and TEV protease recognition site from the pET21(+) construct) GVATSLLYSGSKFRGHQKSKGNSYDVEVVLQHVDTGNSYLCGYLKIKGLTEEYPTLTTFFEGEIISKKHPFLTRKWDADEDVDRKHWGKFLAFYQYAKSFNSDDFDYEELKNGDYVFMRWKEQFLVPDHTIKDISGASFAGFYYICFQKSAASIEGYYYHRSSEWYQSLNLTHVPEHSAPIYEFR | > 50% |  |  |  |  |  |  |  |  |  |  |  |  |  |  |  |  | 
GID4 A252V variant (residues 116-300), purified with N-terminal His-tag (designed binder, not shown: N-terminal six-histidine tag and TEV protease recognition site from the pET21(+) construct) GVATSLLYSGSKFRGHQKSKGNSYDVEVVLQHVDTGNSYLCGYLKIKGLTEEYPTLTTFFEGEIISKKHPFLTRKWDADEDVDRKHWGKFLAFYQYAKSFNSDDFDYEELKNGDYVFMRWKEQFLVPDHTIKDISGVSFAGFYYICFQKSAASIEGYYYHRSSEWYQSLNLTHVPEHSAPIYEFR | > 60% | > 60% | > 60% | > 65% | > 60% | < 31% | > 65% | 1.7 fold | binds | binds | binds |  |  |  |  |  |  | 
GID4 A252V-S283F double mutant variant (residues 116-300), purified with N-terminal His-tag (designed binder, also called A252V-S283F mutant; not shown: N-terminal six-histidine tag and TEV protease recognition site from the pET21(+) construct) GVATSLLYSGSKFRGHQKSKGNSYDVEVVLQHVDTGNSYLCGYLKIKGLTEEYPTLTTFFEGEIISKKHPFLTRKWDADEDVDRKHWGKFLAFYQYAKSFNSDDFDYEELKNGDYVFMRWKEQFLVPDHTIKDISGVSFAGFYYICFQKSAASIEGYYYHRSSEWYQFLNLTHVPEHSAPIYEFR | > 69% | > 69% | > 69% | > 58% | > 69% |  | > 55% |  | binds | binds | binds | > 51% | binds |  |  |  |  | 
GID4 A252V-S253T-S283F triple mutant variant (residues 116-300), purified with N-terminal His-tag (designed binder, not shown: N-terminal six-histidine tag and TEV protease recognition site from the pET21(+) construct) GVATSLLYSGSKFRGHQKSKGNSYDVEVVLQHVDTGNSYLCGYLKIKGLTEEYPTLTTFFEGEIISKKHPFLTRKWDADEDVDRKHWGKFLAFYQYAKSFNSDDFDYEELKNGDYVFMRWKEQFLVPDHTIKDISGVTFAGFYYICFQKSAASIEGYYYHRSSEWYQFLNLTHVPEHSAPIYEFR | > 69% | > 69% | > 69% | > 58% | > 69% |  | > 55% | > 2.3 fold | binds | binds | binds | > 51% |  |  |  |  |  | 
GID4 S283F variant (residues 116-300), purified with N-terminal His-tag (designed binder, not shown: N-terminal six-histidine tag and TEV protease recognition site from the pET21(+) construct) GVATSLLYSGSKFRGHQKSKGNSYDVEVVLQHVDTGNSYLCGYLKIKGLTEEYPTLTTFFEGEIISKKHPFLTRKWDADEDVDRKHWGKFLAFYQYAKSFNSDDFDYEELKNGDYVFMRWKEQFLVPDHTIKDISGASFAGFYYICFQKSAASIEGYYYHRSSEWYQFLNLTHVPEHSAPIYEFR |  |  |  | 40% |  | < 31% |  |  | binds | binds | binds |  | binds | binds | binds | binds | binds | binds
GID4 A252V-S253T double mutant variant (residues 116-300), purified with N-terminal His-tag (designed binder, also called A252V-S253T mutant; not shown: N-terminal six-histidine tag and TEV protease recognition site from the pET21(+) construct) GVATSLLYSGSKFRGHQKSKGNSYDVEVVLQHVDTGNSYLCGYLKIKGLTEEYPTLTTFFEGEIISKKHPFLTRKWDADEDVDRKHWGKFLAFYQYAKSFNSDDFDYEELKNGDYVFMRWKEQFLVPDHTIKDISGVTFAGFYYICFQKSAASIEGYYYHRSSEWYQSLNLTHVPEHSAPIYEFR | > 69% | > 69% | > 69% | > 58% | > 69% |  |  |  | binds | binds | binds | > 51% | binds |  |  |  |  | binds
GID4 S253T variant (residues 116-300), purified with N-terminal His-tag (designed binder, not shown: N-terminal six-histidine tag and TEV protease recognition site from the pET21(+) construct) GVATSLLYSGSKFRGHQKSKGNSYDVEVVLQHVDTGNSYLCGYLKIKGLTEEYPTLTTFFEGEIISKKHPFLTRKWDADEDVDRKHWGKFLAFYQYAKSFNSDDFDYEELKNGDYVFMRWKEQFLVPDHTIKDISGATFAGFYYICFQKSAASIEGYYYHRSSEWYQSLNLTHVPEHSAPIYEFR |  |  |  |  |  | < 31% |  |  | binds | binds | binds |  | binds | binds | binds | binds | binds | 
